Measured values taken from patent publication US20020015966A1, “Effector-specific protein assembly and uses thereof” (priority 2000, published 2002).

Legend:
[1] = target: T1, TR 204-461 (Homo sapiens, UniProt P10828); assay: protease digestion assay (trypsin) of TR LBD; format: biochemical; settings: in the absence of ligand; 1 mM peptide, trypsin 7 minutes at room temperature
T1 construct: Flag (N); made in house; host or cells: in vitro translation
T1 sequence (P10828 204-461): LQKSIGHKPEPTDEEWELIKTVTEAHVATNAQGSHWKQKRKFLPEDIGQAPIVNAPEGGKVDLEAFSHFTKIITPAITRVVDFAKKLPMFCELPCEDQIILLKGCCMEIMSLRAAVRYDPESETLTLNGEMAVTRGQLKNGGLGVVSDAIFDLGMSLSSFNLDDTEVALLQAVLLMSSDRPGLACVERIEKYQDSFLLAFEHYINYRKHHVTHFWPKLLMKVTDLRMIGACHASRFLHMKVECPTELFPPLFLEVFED
Protocol: The mixture was digested with trypsin for 7 minutes at room temperature and analyzed by SDS-PAGE.
Subsequently, wild-type or mutated N-CoR peptides were added to final concentrations of 1 mM, and the reaction mixtures was further incubated for 30 minutes on ice. BSA was added to the reactions with no peptides to supplement for equal protein concentration in all the reaction mixtures. Finally, […] of trypsin was added to the indicated tubes, and the protein digestion was performed at room temperature for 7 minutes. The reactions were stopped with the addition of SDS-sample buffer and boiling. The samples were run on a 15% SDS-gel that was then dried and exposed to film for 1 hour.

[2] = target: T2, GST-TR hinge fusion / TR LBD (Homo sapiens, UniProt P10828); assay: GST pulldown assay of GST-TR204-260 with in vitro translated TR236-461; format: binding; settings: peptide 10 and 100 μM
T2 construct: GST pulldown assay of GST-TR204-260 with in vitro translated TR236-461; made in house; host or cells: The GST fusion was made in E. coli BL21; The LBD fragment was translated in vitro
T2 sequence (P10828 236-461): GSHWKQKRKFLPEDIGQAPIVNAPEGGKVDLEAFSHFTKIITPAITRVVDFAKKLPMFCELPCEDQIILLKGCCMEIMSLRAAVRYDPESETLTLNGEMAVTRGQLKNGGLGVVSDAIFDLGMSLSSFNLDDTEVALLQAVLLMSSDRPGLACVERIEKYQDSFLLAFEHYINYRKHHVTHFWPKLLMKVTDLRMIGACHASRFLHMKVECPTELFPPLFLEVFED
T2 sequence (P10828 204-260 partner limits assumed): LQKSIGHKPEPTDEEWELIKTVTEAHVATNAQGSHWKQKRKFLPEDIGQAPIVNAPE
From the text: FIGS. 5A and 5B illustrate that N-CoR enhances the hinge-LBD interaction in the absence of ligand. In FIG. 5A, HepG2 cells were cotransfected with Gal4-hinge and VP16-LBD fusions of TR (left panel), RAR (middle panel), or RXR (right panel) in the presence or absence of Gal-RIP13ΔN4 construct and treated with the corresponding ligands or vehicle alone. […] Wt and mutant peptides of N-CoR IDI (top and bottom panels, respectively) were included where indicated at concentrations of 10 (+) and 100 (++) μM.
The appropriate GST fusion constructs were induced with […] and coupled to glutathione beads (Sepharose, Pharmacia). Interactions were performed overnight at 4° C. in buffer containing 20 mM Hepes pH 7.6, 100 mM NaCl, 20% glycerol, 2 mg/ml BSA, 1 mM DTT, and various protease inhibitors. The beads were subsequently washed twice with the interaction buffer containing 0.05% Triton X-100 and once with 50 mM Tris-HCl pH 8. Ligands or peptides were included in the washes where appropriate. The bound proteins were eluted with 15 mM glutathione (Sigma) for 15 minutes at 37° C. and analyzed by SDS-PAGE and fluorography (Amplify, Amersham). The sequence of the N-CoR RID peptide was […].

[3] = system: ER-α; assay: mammalian two-hybrid assay of ER-α helix 1-LBD interaction; format: cell-based; settings: HepG2 cells, G5E1B-Luc reporter
From the text: Shown are mammalian two-hybrid assays of Gal fusions containing helix 1 of ER-α with VP16 fusions of the ER LBD containing or lacking helix 1. HepG2 cells were cotransfected with G5E1B-Luc reporter, the appropriate combination of the expression vectors, and a ligand or vehicle. “E2” denotes estradiol; “4HT” denotes 4-hydroxy tamoxifen; and “ICI” denotes ICI-172,780.
HepG2 cells were maintained in Dulbecco's modified Eagle medium supplemented with 10% fetal calf serum. For transfection the cells were plated the day before into 24-well dishes at density 10^5 cells/well in DMEM supplemented with 10% charcoal-stripped serum. Transfections were performed by the calcium phosphate co-precipitation method. […] The amount of DNA was adjusted to 500 ng total per well with pBluescript vector.
The cells were washed with PBS the next morning and fresh media containing the appropriate ligands was added. The cells were harvested 24 hours later and assayed for luciferase (Molecular Probes) and β-Galactosidase activity (Tropix) on an MLX luminometer. All experiments were performed at least twice in duplicate.

## ASNLGEDIIKALMGSFDD [wild type NCoR RID I peptide]
[1]
  new protease resistant species with a lower molecular weight: presence of a new protease resistant species
  stabilization of TR LBD fragment against trypsin digestion: some apparent stabilization
[2]; in the absence of ligand
  interaction between a GST-TR hinge fusion and the TR LBD: strongly stimulated
[2]; in the presence of ligand
  interaction between a GST-TR hinge fusion and the TR LBD: did not affect

## 4-hydroxy tamoxifen
[3]
  hinge-LBD interaction of ER-α: stronger effect
